Data reported in article PMC11702068, “NEK8 promotes the progression of gastric cancer by reprogramming asparagine metabolism” (Molecular Medicine, 2025).

Target: T1, His-NEK8 (UniProt Q86SG6 1-692)
T1 construct: NEK8 (NIMA-related kinase 8); also called His-tagged NEK8; source: E. coli BL21, purified (Ni-NTA agarose)
T1 sequence (looked up): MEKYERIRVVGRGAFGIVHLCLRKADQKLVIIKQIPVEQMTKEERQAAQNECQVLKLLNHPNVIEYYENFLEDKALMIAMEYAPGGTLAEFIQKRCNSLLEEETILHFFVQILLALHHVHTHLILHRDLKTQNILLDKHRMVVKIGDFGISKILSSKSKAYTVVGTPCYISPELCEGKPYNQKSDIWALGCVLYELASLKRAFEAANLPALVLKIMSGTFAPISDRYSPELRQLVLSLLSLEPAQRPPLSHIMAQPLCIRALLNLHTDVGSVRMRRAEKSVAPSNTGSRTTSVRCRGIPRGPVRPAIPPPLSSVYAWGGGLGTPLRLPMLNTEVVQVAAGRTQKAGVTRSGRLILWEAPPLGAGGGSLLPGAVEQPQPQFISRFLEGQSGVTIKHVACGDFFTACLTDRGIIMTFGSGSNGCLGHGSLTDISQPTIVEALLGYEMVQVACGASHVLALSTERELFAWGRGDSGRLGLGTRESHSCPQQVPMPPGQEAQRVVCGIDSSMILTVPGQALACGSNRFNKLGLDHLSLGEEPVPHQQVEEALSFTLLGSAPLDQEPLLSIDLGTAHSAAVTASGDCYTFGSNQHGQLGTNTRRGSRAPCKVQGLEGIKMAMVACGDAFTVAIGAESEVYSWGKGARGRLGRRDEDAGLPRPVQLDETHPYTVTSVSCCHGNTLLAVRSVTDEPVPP
Test: pull-down; GST affinity isolation: GST-tagged NEK8 or ASNS proteins on glutathione-Sepharose 4B beads incubated with His-tagged ASNS or NEK8 at 4 °C for five hours; wash with GST binding buffer (2 mM EDTA, 50 mM NaF, 100 mM NaCl, 1% NP-40); immunoblotting
Conditions: both partners purified

B1: GST-ASNS full-length (enzyme, UniProt P08243 1-561, looked up)
chain: MCGIWALFGSDDCLSVQCLSAMKIAHRGPDAFRFENVNGYTNCCFGFHRLAVVDPLFGMQPIRVKKYPYLWLCYNGEIYNHKKMQQHFEFEYQTKVDGEIILHLYDKGGIEQTICMLDGVFAFVLLDTANKKVFLGRDTYGVRPLFKAMTEDGFLAVCSEAKGLVTLKHSATPFLKVEPFLPGHYEVLDLKPNGKVASVEMVKYHHCRDVPLHALYDNVEKLFPGFEIETVKNNLRILFNNAVKKRLMTDRRIGCLLSGGLDSSLVAATLLKQLKEAQVQYPLQTFAIGMEDSPDLLAARKVADHIGSEHYEVLFNSEEGIQALDEVIFSLETYDITTVRASVGMYLISKYIRKNTDSVVIFSGEGSDELTQGYIYFHKAPSPEKAEEESERLLRELYLFDVLRADRTTAAHGLELRVPFLDHRFSSYYLSLPPEMRIPKNGIEKHLLRETFEDSNLIPKEILWRPKEAFSDGITSVKNSWFKILQEYVEHQVDDAMMANAAQKFPFNTPKTKEGYYYRQVFERHYPGRADWLSHYWMPKWINATDPSARTLTHYKSAVKA
notes: asparagine synthetase (ASNS), full-length (FL); also called FL
B1: binds.
